The supplement of paper PMC9170038

Key:
MS2 coat protein [1] = experiment: apparent KD of MS2 coat protein, switch ON state; designed switch direction (-1 OFF switch, 1 ON switch): 1; higher = weaker reporter binding; details: FMN input: 0 or 200 uM; Eterna round: R93 (includes R88 designs)
Method in brief: (§1)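 Designed RNA switches were transcribed on-chip from Illumina sequencing clusters. SNAP-549-labelled MS2 coat protein was titrated onto them in twofold steps from 0.7 or 1.5 nM to 3 µM in 100 mM Tris-HCl pH 7.5, 80 mM KCl, 4 mM MgCl2, either without or with constant ligand. Apparent KD reflects the per-design median of normalised cluster binding-curve fits.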

MS2 coat protein [2] = experiment: apparent KD of MS2 coat protein, switch OFF state (with FMN for OFF switches, without FMN for ON switches); designed switch direction (-1 OFF switch, 1 ON switch): 1; higher = weaker reporter binding; details: FMN input: 0 or 200 uM; Eterna round: R93 (includes R88 designs)
Method in brief: as §1

Sequence | apparent KD of MS2 coat protein (MS2 coat protein [1]) | apparent KD of MS2 coat protein (MS2 coat protein [2])
AAUGAACAUGAGGAUCACCCAUGUUCUAAUAGUUGAGGAUAUGUGGGUGAAAAUAGCACGGCAGAAGGCGAGUGUA [SameState1 Malc#19] | 101 nM | 80.7 nM
ACAAAACAUGAGGAUCACCCAUGUAUAAAUAUAACAGGAUAUGGGACUGCCGAUUAGGCACCAGAAGGGUUUUCAC [Atearve] | 20.8 nM | 27.3 nM
ACAAAACAUGAGGAUCACCCAUGUCGACUAAAUCAAGGAUAUGGGAAUGCGAAAGCAAAGCCAGAAGGUGAGGUCC [Xeorarbiar] | 294 nM | 185 nM
ACAUGCUGCCGGCAGGAUAUCGCUUGGCGGACAUGAGGAUCACCCAUGUGAGAAAGUCGCGCGCGCGAGAAGGGCCAUGGUAUCAG [SameState2_Neo] | 89.3 nM | 61.1 nM
ACGGUCAAGUGUGAGGAUAUCCAGGCUCCCACAUGAGGAUCACCCAUGUCUUAAAGGGCGUAAAGGGAGAAGGUACGAACGCCAC [Vesolees] | 33.2 nM | 45.3 nM
AGAAAACAUGAGGAUCACCCAUGUAGAAAUAUGGGAGGAUAUACAAAGACGAAAGUCAAGGUAGAAGGCCUAAAGA [Mat - Same State 1 - Meechl mod - D124] | 20 nM | 99.9 nM
AGAAAACAUGAGGAUCACCCAUGUAGGAAUAUGGGAGGAUAUACAAAGACGAAAGUCAGAGUAGAAGGCCUAAGAA [salish99-SS1-087] | 24.1 nM | 81.8 nM
AGAAAACAUGAGGAUCACCCAUGUGACAAUAUGGGAGGAUAUACAAAGACGAAAGUCGAAGUAGAAGGCCUAAAGA [Garnet 52] | 26.1 nM | 69.7 nM
AGAAAUAAAACACAGGAUAUCCAAAAGAAAACAUGAGGAUCACCCAUGUAAAAGAAAAUAAAAUGGGAGAAGGGUGAAAAUAAAG [Breaking Jandersonlee's winner (80%)] | 38 nM | 52.6 nM
AGAAAUAAAACACAGGAUAUCCAAAAGAAAACAUGAGGAUCACCCAUGUAAAGAAAAUAAAAAUGGGAGAAGGGUGAAAAUAAGA [Mat - Same State 2 - JL mod - D15] | 19.9 nM | 31.5 nM
AGAAAUAAAAGAGAGGAUAUCCAAAAGAAAACAUGAGGAUCACCCAUGUAAAAGAAAAUAAAAUGGGAGAAGGCUCAAAAUAAAGA [Helter Skelter 2] | 21.6 nM | 69.7 nM
AGAAAUAAAAGAGAGGAUAUCCAAAAUAAAACAUGAGGAUCACCCAUGUGUACGAAAGUACAAUGGGAGAAGGCUCAAAAUAAAG [80% More Helter Skelter 2 + Hairpin] | 1280 nM | 6.54 nM
AGAAAUAAAAGGCAGGAUAUCCAAAAGAAAACAUGAGGAUCACCCAUGUAAAAGAAAAUAAAGUGGGAGAAGGGCCAAAAUAAAG [My design (73%) + Space bases] | 11.7 nM | 36.5 nM
AGAAAUAAAAUGGAGGAUAUCCAAAAGAAAACAUGAGGAUCACCCAUGUAAAAGAAAAUAAAAUGGGAGAAGGCCACAAAUAAAG | 26.8 nM | 31.4 nM
AGAAAUAAAUGAGAGGAUAUCCUAAAGAAAACAUGAGGAUCACCCAUGUAAAAGAAAAUAAAAUGGGAGAAGGCUCAUAAUAAAG [Starry Same State 2 (jandersonlee round 1 mod)] | 20.8 nM | 35.5 nM
AGCACGGGAUUGGAGGAUAUGUUGUUUGCAACAUGAGGAUCACCCAUGUCUGAGGCUGAAAAGCAGCAGAAGGCCGAUACAACCA [SS2-1.2] | 43.8 nM | 367 nM
AGCACGUGAUUGGAGGAUAUGCAGUAAGCAACAUGAGGAUCACCCAUGUCUGACCCUGAAAACCAGCAGAAGGCCGAUACAACCA [SS2-1.7] | 10.2 nM | 13 nM
AGCACGUGAUUGGAGGAUAUGUUGUAAGCAACAUGAGGAUCACCCAUGUCUGAGGCUGAAAAGCAGCAGAAGGCCGAUACAACCA [SS2-1.3] | 37.2 nM | 110 nM
AGGAAACAUGAGGAUCACCCAUGUAAAAAAAUGGGAGGAUAUACUAGAAGAAACAAAAUAGUAGAAGGCCUAAAAA [75%, Ex sub1, 27] | 18.9 nM | 74.9 nM
AGGAAACAUGAGGAUCACCCAUGUAAAAAUAUAGGAGGAUAUGCGAAAAGAAACAAAGAAGCAGAAGGCUUAAAAA [75%, Ex sub1, 22] | 13.1 nM | 20.8 nM

Sequence | apparent KD of MS2 coat protein (MS2 coat protein [1]) | apparent KD of MS2 coat protein (MS2 coat protein [2])
AGGAAACAUGAGGAUCACCCAUGUAAAAAUAUGGAAGGAUAUGGAAACACGAAAGUGAAACCAGAAGGUUCAAAAA [77%, Mat - Mod of Eli, 22] | 18.5 nM | 24.7 nM
AGGAAACAUGAGGAUCACCCAUGUAAGAUAUAUACAGGAUAUGCGAAAAGAAACAAAGAAGCAGAAGGGUAAAAAA [75%, Ex sub1, 13] | 18 nM | 25.5 nM
AGGAAACAUGAGGAUCACCCAUGUAUAAAAAUGGAAGGAUAUACUAAGACGAAAGUCAUAGUAGAAGGUUCAAAAA [76%, Meechl, 9] | 13.1 nM | 21.1 nM
AGGAGACAUGAGGAUCACCCAUGUGAGAAGAGGCGAGGAUAUCGAAAAAAAAAAAGAAAACGAGAAGGCGCGAGAA [salish99-SS1-014] | 244 nM | 59.9 nM
AGGAGACAUGAGGAUCACCCAUGUGAGAAGAGGCGAGGAUAUCGAAAGAAAGAAAGAAAACGAGAAGGCGCGAGAA [salish99-SS1-016] | 28 nM | 42.8 nM
AGGAGACAUGAGGAUCACCCAUGUGAGAAGAGGCGAGGAUAUCGAAAGAAAGAAGAGAAACGAGAAGGCGCGAGAC [salish99-SS1-029] | 15.4 nM | 33.6 nM
AUAAAACAUGAGGAUCACCCAUGUAGAAAUAUGGGAGGAUAUACUAGAUCGAAAGAUCUAGUAGAAGGCCUUUAUG [JL Mod of Eli 5] | 45.4 nM | 49.3 nM
AUAAAACAUGAGGAUCACCCAUGUAGACACGAUGGAGGAUAUACUAGAUCGAAAGAUCUAGUAGAAGGCCGACGUA [Mat - Same State 1 - JL mod - D95] | 18.4 nM | 22.6 nM
AUAAAAGAAGCGAAGGAUAUCCAAAAUCCAACAUGAGGAUCACCCAUGUAAAGAAAGAAAAAAUGGGAGAAGGUCGCAAAGAAUA [73%, More Fisker Same State 2, D3, 11] | 13.5 nM | 31.3 nM
AUAAAAUAAAAGGAGGAUAUCCUUAAUAAAACAUGAGGAUCACCCAUGUAAAAAAUAAUAAAAUGGGAGAAGGCCUAAAAUAAAU [SS2 M 26] | 24.2 nM | 64.2 nM
AUAAAUAAAAGAGAGGAUAUCCAAAAUAAAACAUGAGGAUCACCCAUGUAAAAUAAAAUAAAAUGGGAGAAGGCUCAAAAUAAAU [SS2 M 2] | 21.6 nM | 72.1 nM
AUAAAUAAAAUCAAGGAUAUCCAAAAAAAAACAUGAGGAUCACCCAUGUAAAAGAAAAUAAAAUGGGAGAAGGUGAAAAAUAAAU [SS2 M 6] | 39.4 nM | 68 nM
AUAUAUAAAAGAUAGGAUAUACUAAAAUAAACAUGAGGAUCACCCAUGUAAAAAAAGAAACUCAUGUAGAAGGAUCAUAUAUAUA [ss2 7th] | 46.5 nM | 246 nM
AUAUAUAUAAGGAAGGAUAUCCAAAAAUAAACAUGAGGAUCACCCAUGUCCAUAAAGAAUAAAUGGGAGAAGGUCCAUAUAUAUA [77%, More Tesla, 9] | 24.2 nM | 123 nM
AUGAAAGUAACGCAGGAUAUCCAGGAUACAACAUGAGGAUCACCCAUGUACAUACGAACGUAUAAGGAGAAGGGUGGAUGAUCUUC [ss2-3] | 56.7 nM | 48.2 nM
CAGAGACAUGAGGAUCACCCAUGUAGGAUUAUGGGAGGAUAUACAAAGACGAGAGUCAGAGUAGAAGGCCUAGGCC [salish99-ss1-145] | 29.7 nM | 43.2 nM
CAUCACGCGCCUAAGGAUAUGUCUCACAAGACAUGAGGAUCACCCAUGUAGAAUAAAUAAAUGAUGCAGAAGGUGGAGCGCAUGC [Gerixeza] | 134 nM | 517 nM
CAUCAUGCGCCUAAGGAUAUGUCUCACAAGACAUGAGGAUCACCCAUGUAGAAUAAAUAAACGAUGCAGAAGGUGGAGCGCAUGA [Cexeri] | 40.2 nM | 222 nM
CAUCAUGCGCCUAAGGAUAUGUCUCACAAGACAUGAGGAUCACCCAUGUAGAAUAAAUAAAUGAUGCAGAAGGUGGAGCGCAUAC [Beusesce] | 61.9 nM | 507 nM
